T1: human ANGPTL8 (human, UniProt Q6UXH0 22-198)
T1 construct: Biotinylated in the ELISA assays; also called hANGPTL8; free ANGPTL8
T1 sequence: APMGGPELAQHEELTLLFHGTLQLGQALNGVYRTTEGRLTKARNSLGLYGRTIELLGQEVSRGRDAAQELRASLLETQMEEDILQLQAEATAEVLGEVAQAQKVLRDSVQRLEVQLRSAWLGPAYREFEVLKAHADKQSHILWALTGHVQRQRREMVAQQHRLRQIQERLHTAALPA

T2: mouse ANGPTL3/8 complex (mouse, UniProt Q9R182 17-455; Q8R1L8 16-198, limits assumed)
T2 sequence (looked up) 1: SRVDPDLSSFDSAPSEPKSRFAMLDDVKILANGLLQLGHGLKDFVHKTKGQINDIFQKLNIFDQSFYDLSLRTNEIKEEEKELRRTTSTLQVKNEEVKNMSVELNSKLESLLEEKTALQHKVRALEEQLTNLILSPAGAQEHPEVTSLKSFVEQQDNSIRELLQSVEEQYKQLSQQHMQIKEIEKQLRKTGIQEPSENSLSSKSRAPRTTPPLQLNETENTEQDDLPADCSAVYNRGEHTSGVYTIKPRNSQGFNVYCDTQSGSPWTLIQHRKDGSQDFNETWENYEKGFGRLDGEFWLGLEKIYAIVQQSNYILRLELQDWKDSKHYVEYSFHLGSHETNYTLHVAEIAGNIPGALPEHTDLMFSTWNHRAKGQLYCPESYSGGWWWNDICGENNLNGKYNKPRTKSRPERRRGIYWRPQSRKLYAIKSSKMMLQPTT
T2 sequence (looked up) 2: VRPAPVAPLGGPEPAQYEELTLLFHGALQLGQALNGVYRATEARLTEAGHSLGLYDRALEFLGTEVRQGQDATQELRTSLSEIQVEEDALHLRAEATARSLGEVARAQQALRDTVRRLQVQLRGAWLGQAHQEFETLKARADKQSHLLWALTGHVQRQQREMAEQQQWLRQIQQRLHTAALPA

T3: LPL (lipoprotein lipase) on LPL-expressing cells of Example 1
T3 sequence (P06858 28-475, species assumed, looked up): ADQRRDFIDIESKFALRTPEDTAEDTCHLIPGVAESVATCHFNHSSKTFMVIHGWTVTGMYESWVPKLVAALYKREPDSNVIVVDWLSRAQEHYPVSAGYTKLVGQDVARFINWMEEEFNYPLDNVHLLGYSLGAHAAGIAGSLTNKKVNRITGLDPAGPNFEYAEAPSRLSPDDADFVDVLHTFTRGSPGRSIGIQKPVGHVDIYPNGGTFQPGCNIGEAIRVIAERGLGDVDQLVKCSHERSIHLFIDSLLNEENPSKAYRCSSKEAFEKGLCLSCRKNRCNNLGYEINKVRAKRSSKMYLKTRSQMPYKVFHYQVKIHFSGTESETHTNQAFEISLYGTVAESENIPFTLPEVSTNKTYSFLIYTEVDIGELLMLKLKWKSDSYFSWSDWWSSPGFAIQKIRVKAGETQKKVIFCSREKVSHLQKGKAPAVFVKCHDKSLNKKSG

T4: human LPL (human, UniProt P06858 28-475)
T4 sequence (looked up): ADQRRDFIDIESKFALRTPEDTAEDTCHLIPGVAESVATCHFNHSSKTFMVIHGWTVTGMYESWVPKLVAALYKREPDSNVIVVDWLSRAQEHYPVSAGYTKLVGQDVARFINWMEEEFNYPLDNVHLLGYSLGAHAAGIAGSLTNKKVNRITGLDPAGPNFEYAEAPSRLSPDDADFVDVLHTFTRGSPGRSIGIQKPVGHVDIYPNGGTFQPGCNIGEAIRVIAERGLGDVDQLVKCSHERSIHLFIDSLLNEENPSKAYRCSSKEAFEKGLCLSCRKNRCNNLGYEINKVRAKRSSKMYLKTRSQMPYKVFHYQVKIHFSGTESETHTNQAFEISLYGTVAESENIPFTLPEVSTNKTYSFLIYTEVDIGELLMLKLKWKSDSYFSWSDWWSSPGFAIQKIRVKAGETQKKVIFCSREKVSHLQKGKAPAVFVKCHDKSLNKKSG

T5: cynomolgus LPL (cynomolgus, UniProt A0A7N9D851 28-475)
T5 sequence: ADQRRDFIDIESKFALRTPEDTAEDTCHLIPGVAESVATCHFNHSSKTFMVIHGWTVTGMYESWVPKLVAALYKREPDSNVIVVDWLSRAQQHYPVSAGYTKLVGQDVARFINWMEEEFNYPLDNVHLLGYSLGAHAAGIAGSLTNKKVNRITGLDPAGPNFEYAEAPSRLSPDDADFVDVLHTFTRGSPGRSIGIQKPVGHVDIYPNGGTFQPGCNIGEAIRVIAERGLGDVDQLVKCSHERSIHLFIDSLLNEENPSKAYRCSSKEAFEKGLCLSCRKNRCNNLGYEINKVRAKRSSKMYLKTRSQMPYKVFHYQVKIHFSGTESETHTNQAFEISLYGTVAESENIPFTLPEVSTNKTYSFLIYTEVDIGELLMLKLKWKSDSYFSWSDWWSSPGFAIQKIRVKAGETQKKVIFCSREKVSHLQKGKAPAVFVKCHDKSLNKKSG

B1: human ANGPTL3 (other)
chain: SRIDQDNSSFDSLSPEPKSRFAMLDDVKILANGLLQLGHGLKDFVHKTKGQINDIFQKLNIFDQSFYDLSLQTSEIKEEEKELRRTTYKLQVKNEEVKNMSLELNSKLESLLEEKILLQQKVKYLEEQLTNLIQNQPETPEHPEVTSLKTFVEKQDNSIKDLLQTVEDQYKQLNQQHSQIKEIENQLRRTSIQEPTEISLSSKPRAPRTTPFLQLNEIRNVKHDGIPAECTTIYNRGEHTSGMYAIRPSNSQVFHVYCDVISGSPWTLIQHRIDGSQNFNETWENYKYGFGRLDGEFWLGLEKIYSIVKQSNYVLRIELEDWKDNKHYIEYSFYLGNHETNYTLHLVAITGNVPNAIPENKDLVFSTWDHKAKGHFNCPEGYSGGWWWHDECGENNLNGKYNKPRAKSKPERRRGLSWKSQNGRLYSIKSTKMLIHPTDSESFE
B2: human ANGPTL3/8 complex (other)
chain 1: SRIDQDNSSFDSLSPEPKSRFAMLDDVKILANGLLQLGHGLKDFVHKTKGQINDIFQKLNIFDQSFYDLSLQTSEIKEEEKELRRTTYKLQVKNEEVKNMSLELNSKLESLLEEKILLQQKVKYLEEQLTNLIQNQPETPEHPEVTSLKTFVEKQDNSIKDLLQTVEDQYKQLNQQHSQIKEIENQLRRTSIQEPTEISLSSKPRAPRTTPFLQLNEIRNVKHDGIPAECTTIYNRGEHTSGMYAIRPSNSQVFHVYCDVISGSPWTLIQHRIDGSQNFNETWENYKYGFGRLDGEFWLGLEKIYSIVKQSNYVLRIELEDWKDNKHYIEYSFYLGNHETNYTLHLVAITGNVPNAIPENKDLVFSTWDHKAKGHFNCPEGYSGGWWWHDECGENNLNGKYNKPRAKSKPERRRGLSWKSQNGRLYSIKSTKMLIHPTDSESFEAAADYKDDDDK
chain 2: APMGGPELAQHEELTLLFHGTLQLGQALNGVYRTTEGRLTKARNSLGLYGRTIELLGQEVSRGRDAAQELRASLLETQMEEDILQLQAEATAEVLGEVAQAQKVLRDSVQRLEVQLRSAWLGPAYREFEVLKAHADKQSHILWALTGHVQRQRREMVAQQHRLRQIQERLHTAALPA

Legend:
human ANGPTL3 [1] = target: B1; experiment: single point ELISA
Protocol: (§1) Single Point ELISA (SPE) Assay: Ab binding selectivity to either the ANGPTL3/8 complex, free ANGPTL3 or free ANGPTL8 is initially verified using standard ELISA assays in a single point format. […] IgG secreted into supernatants after expression in CHO cells are then captured to the assay plate. Biotinylated antigen is added at a concentration of 25 nM to allow for Ab/antigen binding. Ab/antigen complexes are detected after adding alkaline phosphatase-conjugated neutravidin and alkaline phosphatase substrate, and subsequent measurement of the optical density at 560 nm. Positive binding is determined by a signal greater than 3 fold over the non-binding background signal.

human ANGPTL8 [2] = target: T1, human ANGPTL8; experiment: single point ELISA
Protocol: as §1

mouse ANGPTL3/8 complex = target: T2, mouse ANGPTL3/8 complex; experiment: cell-based or functional assay
human ANGPTL3/8 complex [3] = target: B2; experiment: cell-based or functional assay
human ANGPTL3 [4] = target: B1; experiment: single point ELISA; IgG captured by anti-human Fc; biotinylated antigen at 25 nM
Protocol: as §1

human ANGPTL3/8 complex [5] = target: B2; experiment: as above
Protocol: as §1

human ANGPTL8 [6] = target: T1, human ANGPTL8; experiment: as above
Protocol: as §1

[7] = target: T3, LPL (lipoprotein lipase) on …; experiment: cell-based or functional assay
human LPL = target: T4, human LPL; experiment: cell-based or functional assay
cynomolgus LPL = target: T5, cynomolgus LPL; experiment: cell-based or functional assay

Binder	binding result (human ANGPTL3 [1])	binding result (human ANGPTL8 [2])	OD at 560 nm (human ANGPTL3 [4])	OD at 560 nm (human ANGPTL3/8 complex [5])	OD at 560 nm (human ANGPTL8 [6])	EC50 in the LPL assay (inhibition of LPL) [7]	also measured
Ab with LC variant having a D33T mutation (SEQ ID NO:23) and a HC of SEQ ID NO:6 (antibody, human IgG4 S228P, kappa, F234A L235A, V domains shown, also called D33T Ab) VH: QVTLKESGPTLVKPTQTLTLTCTFSGFSLSISGVGVGWIRQPPGKALEWLALIYRNDDKRYSPSLKSRLTITKDTSKNQVVLTLTNMDPVDTATYYCARTYSSGWYGNWFDPWGQGTLVTVSS VL: DIVMTQTPLSLPVTPGEPASISCRSSQSLLDSTDGNTYLDWYLQKPGQSPQLLIYMLSYRASGVPDRFSGSGSGTDFTLKISRVEAEDVGIYYCMQRIEFPLTFGGGTKVEIKR	no binding	no binding	0.06 OD 560 nm	0.661 OD 560 nm	0.07 OD 560 nm	–	% Max Derepression LPL (mouse ANGPTL3/8 complex): 114%; Ab EC50 (nM), derepression of LPL (mouse ANGPTL3/8 complex): 4.55 nM; % Max Derepression LPL (human ANGPTL3/8 complex [3]): 105%; Ab EC50 (nM), derepression of LPL (human ANGPTL3/8 complex [3]): 1.56 nM
Ab with LC variant having a M56T mutation (SEQ ID NO:24) and a HC of SEQ ID NO:6 (antibody, human IgG4 S228P, kappa, F234A L235A, V domains shown) VH: QVTLKESGPTLVKPTQTLTLTCTFSGFSLSISGVGVGWIRQPPGKALEWLALIYRNDDKRYSPSLKSRLTITKDTSKNQVVLTLTNMDPVDTATYYCARTYSSGWYGNWFDPWGQGTLVTVSS VL: DIVMTQTPLSLPVTPGEPASISCRSSQSLLDSDDGNTYLDWYLQKPGQSPQLLIYTLSYRASGVPDRFSGSGSGTDFTLKISRVEAEDVGIYYCMQRIEFPLTFGGGTKVEIKR	no binding	no binding	0.06 OD 560 nm	0.775 OD 560 nm	0.085 OD 560 nm	–	–
B1	–	–	–	–	–	21.5 nM	–
B2	–	–	–	–	–	0.54 nM	IC80 concentration (inhibition of LPL activity) (human LPL): 0.42 nM
cynomolgus ANGPTL3/8 complex (other) chain 1: SRIDQDNSSFDSVSPEPKSRFAMLDDVKILANGLLQLGHGLKDFVHKTKGQINDIFQKLNIFDQSFYDLSLQTSEIKEEEKELRRTTYKLQVKNEEVKNMSLELNSKLESLLEEKILLQQKVKYLEEQLTNLIQNQPATPEHPEVTSLKSFVEKQDNSIKDLLQTVEEQYKQLNQQHSQIKEIENQLRMTNIQEPTEISLSSKPRAPRTTPFLQLNEIRNVKHDGIPADCTTIYNRGEHISGTYAIRPSNSQVFHVYCDVVSGSPWTLIQHRIDGSQNFNETWENYKYGFGRLDGEFWLGLEKIYSIVKQSNYVLRIELEDWKDNKHYIEYSFYLGNHETNYTLHVVKITGNVPNAIPENKDLVFSTWDHKAKGHFSCPESYSGGWWWHDECGENNLNGKYNKPRTKSKPERRRGLSWKSQNGRLYSIKSTKMLIHPTDSESFE chain 2: APVSSPELAEHEELTLLFHGTLQLGQALNGVYKTTEGRLTKARNSLGLYGRTVELLGQEVSRGRDAAQELRASLLETQMEEDILQLKAEAIAEVLEEVAQAQKVLQDSVRQLEVQLRSAWLGPAYQEFEVLKAHADKQSHILWALTGHVQRQRREMVAQQHRLRQIQERIHKAALPA	–	–	–	–	–	–	IC80 concentration (inhibition of LPL activity) (cynomolgus LPL): 0.38 nM
